Assay results as given in patent US20140056878A1 (ANAPTYSBIO, published 2014).

How the values were obtained:
complement protein C5 = complement protein C5 (UniProt P01031 19-673; P01031 678-1676); test: cell-based or functional assay
C5-C345C = molecular target: T1, C5-C345C (Homo sapiens (Human), UniProt P01031 1530-1676); test: BIACORE screening
T1 construct: C-terminal 147 amino acid residues of the 1648 residue C5 protein; A Myc-tagged or Dylight-650-labelled form was used for FACS selection; In the BIACORE analyses it is named only 'C5-C345C' analyte, and no tag is stated; also called C345C domain of complement C5 protein; C5 domain C5-C345C
T1 sequence (P01031 1530-1676 limits assumed): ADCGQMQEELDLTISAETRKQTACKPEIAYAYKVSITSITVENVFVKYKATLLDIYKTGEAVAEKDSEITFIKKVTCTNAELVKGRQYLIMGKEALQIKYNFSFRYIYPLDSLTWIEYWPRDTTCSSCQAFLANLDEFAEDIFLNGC

complement protein C5, sequence (P01031 19-673 limits assumed, chain 1 of 2): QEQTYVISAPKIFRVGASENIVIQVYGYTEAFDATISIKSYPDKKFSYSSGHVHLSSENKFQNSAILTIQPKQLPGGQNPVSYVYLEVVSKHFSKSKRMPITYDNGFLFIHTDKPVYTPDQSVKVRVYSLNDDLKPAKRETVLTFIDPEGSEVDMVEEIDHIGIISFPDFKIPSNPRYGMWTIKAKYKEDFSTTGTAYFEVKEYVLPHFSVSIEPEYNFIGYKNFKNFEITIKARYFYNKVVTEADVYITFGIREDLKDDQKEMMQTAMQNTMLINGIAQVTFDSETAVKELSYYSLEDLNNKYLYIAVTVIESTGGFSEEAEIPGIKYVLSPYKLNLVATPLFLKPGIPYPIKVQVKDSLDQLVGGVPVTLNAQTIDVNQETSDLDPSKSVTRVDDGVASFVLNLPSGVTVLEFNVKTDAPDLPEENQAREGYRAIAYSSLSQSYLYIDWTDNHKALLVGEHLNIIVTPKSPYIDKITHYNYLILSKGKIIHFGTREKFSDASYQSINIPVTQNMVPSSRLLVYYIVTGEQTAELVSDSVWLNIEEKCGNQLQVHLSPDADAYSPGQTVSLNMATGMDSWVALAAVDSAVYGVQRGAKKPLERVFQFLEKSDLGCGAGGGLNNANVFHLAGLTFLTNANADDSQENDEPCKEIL
complement protein C5, sequence (P01031 678-1676 limits assumed, chain 2 of 2): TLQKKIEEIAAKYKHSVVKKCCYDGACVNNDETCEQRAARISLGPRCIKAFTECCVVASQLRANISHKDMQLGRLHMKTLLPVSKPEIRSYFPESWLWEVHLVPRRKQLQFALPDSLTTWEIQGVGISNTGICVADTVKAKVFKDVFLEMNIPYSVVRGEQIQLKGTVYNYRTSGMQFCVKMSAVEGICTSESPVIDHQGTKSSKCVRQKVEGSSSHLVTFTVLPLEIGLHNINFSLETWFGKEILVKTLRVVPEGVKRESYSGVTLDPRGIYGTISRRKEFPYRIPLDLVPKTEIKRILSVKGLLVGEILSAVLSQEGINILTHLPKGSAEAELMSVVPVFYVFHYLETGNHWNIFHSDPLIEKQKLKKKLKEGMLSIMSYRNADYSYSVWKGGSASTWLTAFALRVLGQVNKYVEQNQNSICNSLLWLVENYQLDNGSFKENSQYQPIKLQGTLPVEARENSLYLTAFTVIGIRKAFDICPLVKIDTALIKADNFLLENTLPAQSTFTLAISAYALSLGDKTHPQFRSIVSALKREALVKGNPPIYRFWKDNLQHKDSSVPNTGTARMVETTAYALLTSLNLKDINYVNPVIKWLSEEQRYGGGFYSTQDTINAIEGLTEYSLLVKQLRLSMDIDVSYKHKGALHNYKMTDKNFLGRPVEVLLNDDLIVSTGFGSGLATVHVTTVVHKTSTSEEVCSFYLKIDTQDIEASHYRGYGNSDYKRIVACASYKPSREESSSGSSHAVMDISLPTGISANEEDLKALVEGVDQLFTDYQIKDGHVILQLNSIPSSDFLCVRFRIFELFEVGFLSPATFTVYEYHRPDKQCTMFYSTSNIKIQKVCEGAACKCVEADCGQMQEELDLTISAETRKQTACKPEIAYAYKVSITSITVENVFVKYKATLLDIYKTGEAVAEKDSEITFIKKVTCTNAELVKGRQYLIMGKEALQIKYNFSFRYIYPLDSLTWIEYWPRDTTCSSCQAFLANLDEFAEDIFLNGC

B1: APE1142 (antibody, IgG1, V domains shown)
VH: EVQLLESGGGLVQPGGSLRLSCAASGFTFSSYAMTWVRQAPGKGLEWVSVISGSGSTYYADSVKGRFTISRDNSKNTLYLQMNSLRAEDTAVYYCARRGLRYNYFDYWGQGTTLTVSS
VL: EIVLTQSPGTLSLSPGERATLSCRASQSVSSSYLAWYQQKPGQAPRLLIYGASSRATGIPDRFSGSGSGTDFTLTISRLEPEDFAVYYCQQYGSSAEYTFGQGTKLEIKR
inhibition of hemolysis of antibody-coated sheep erythrocytes (classical complement pathway, 1% normal human serum) (complement protein C5): 1 µM

B2: APE1224 (antibody, V domains shown)
VH: EVQLLESGGGLVQPGGSLRLSCAASGFTFSSYAMTWVRQAPGKGLEWVSAISGSGSTYYADSVKGRFTISRDNSKNTLYLQMNSLRAEDTAVYYCARRGLRYNYFDYWGQGTTLTVSS
VL: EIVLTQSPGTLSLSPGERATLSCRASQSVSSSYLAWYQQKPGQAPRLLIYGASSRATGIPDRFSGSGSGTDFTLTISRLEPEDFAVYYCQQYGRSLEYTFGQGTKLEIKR
Kd (C5-C345C): 0.2 nM | fold improvement in KD over APE777 (C5-C345C): 1000 fold | inhibition of hemolysis of antibody-coated sheep erythrocytes (classical complement pathway, 1% normal human serum) (complement protein C5): 1 µM
